From PMC10039045

Target: enhanced GFP (EGFP)

For “E. coli dihydrofolate reductase (eDHFR) (from UniProt P0ABQ4 1-159) (enzyme)”, the t1/2 of the normalized PCC increase between mCherry-eDHFR and EGFP-mito over time in live HeLa cells with 24 uM cRGT was 7.26 min.
